Source: US20020127702A1 (University of California, published 2002)

B1: hCdc5 putative nuclear localization domain (amino acids 205-358), His6 fusion (other)
chain: KRGVDYNAEIPFEKKPALGFYDTSEENYQALDADFRKLRQQDLDGELRSEKEGRDRKKDKQHLKRKKESDLPSAILQTSGVSEFTKKRSKLVLPAPQISDAELQEVVKVGQASEIARQTAEESGITNSASSTLLSEYNVTNNSVALRTPRTPAS
notes: Expressed and purified in E. coli as a His6 fusion; not shown: His6 tag
B2: hCdc5 carboxyl terminal domain (amino acids 491-802), His6 fusion (other)
chain: EIVLPENAEKELEEREIDDTYIEDAADVDARKQAIRDAERVKEMKRMHKAVQKDLPRPSEVNTEILRPLNVEPPLTDLQKSEELIKKEMITMLHYDLLHHPYEPSGNKKGKTVGFGTNNSEHITYLEHNPYEKFSKEELKKAQDVLVQEMEVVKQGMSHGELSSEAYNQVWEECYSQVLYLPGQSRYTRANLASKKDRIESLEKRLEINRGHMTTEAKRAAKMEKKMKILLGGYQSRAMGLMKQLNDLWDQIEQAHLELRTFEELKKHEDSAIPRRLECLKEDVQRQQEREKELQHRYADLLLEKETLKSKF
notes: as for B1
B3: hCdc5 DNA binding domain (amino acids 1-120), His6 fusion (other)
chain: MPRIMIKGGVWRNTEDEILKAAVMKYGKNQWSRIASLLHRKSAKQCKARWYEWLDPSIKKTEWSREEEEKLLHLAKLMPTQWRTIAPIIGRTAAQCLEHYEFLLDKAAQRDNEEETTDDP
notes: Expressed and purified in E. coli as a His6 fusion; also called helix-turn-helix domain; not shown: His6 tag
B4: hCdc5 central domain (amino acids 365-501), His6 fusion (other)
chain: EAQNLMALTNVDTPLKGGLNTPLHESDFSGVTPQRQVVQTPNTVLSTPFRTPSNGAEGLTPRSGTTPKPVINSTPGRTPLRDKLNINPEDGMADYSDPSYVKQMERESREHLRLGLLGLPAPKNDFEIVLPENAEKE
notes: as for B1

Tests used:
[1] = molecular target: the molecule itself; assay: glutaraldehyde cross-linking of purified His6 fusion, SDS-PAGE and anti-His immunoblot
[2] = molecular target: the molecule itself; assay: glutaraldehyde cross-linking of purified His6 fusion
[3] = molecular target: B4; assay: glutaraldehyde cross-linking of purified His6 fusions
[4] = molecular target: B1; assay: as above
[5] = molecular target: B3; assay: as above

| binding result [3] | binding result [4] | binding result [5] | Binder | binding result [1] | binding result [2] |
| --- | --- | --- | --- | --- | --- |
| – | – | – | B1 | binds | – |
| no binding | no binding | no binding | B2 | – | no binding |
| no binding | no binding | – | B3 | binds | – |
| – | no binding | – | B4 | – | no binding |
